According to US20060073159A1, “Human anti-cancer immunotherapy” (The Trustees of the University of Pennsylvania, priority 2004, published 2006):

How the values were obtained:
HLA-A2 = target: T1, HLA-A2 (Homo sapiens, UniProt P04439, D140Y/D185E/D98H/E176V/E277Q/G131W/G231S/I119V/I121R/I166T/I218V/L300P/L318F/N151K/N90K/P208A/P217A/Q86G/Q94H/R138H/R169H/T345S); experiment: flow-based T2 binding assay (HLA-A2 binding and MHC complex stability); conditions: 6 epitopes from each gene product compared, T2 cells
T1 construct: T2 cells are prepared to a concentration of 1×10^6 cells/mL; endogenous in cells; host or cells: T2 cells
Method: T2 cells are harvested as described elsewhere herin. T2 cells are wash three times in serum free media. T2 cells are prepared to a concentration of 1×10^6 cells/mL. 1 mL of T2 cells is added to each well of 24 well plate. B2M (1 mg/mL) is added to the mixture to give a final concentration of 2.5 ug/mL. Appropriate control or peptide at 50 ug/mL is added to each wll. The cells are incubated in an incubator at 37° C. For a positive control peptide, RT-POL vs flu or tax can be used.
Next day, cells are harvested and washed three times in serum-free RPMI. The supernatant is removed and the cells are resuspend in 800 ul of serum free IMDM. The cells are plated (400 ul of cells) to one well of a 48 well plate. […]
The fluorescence index (FI) can be calculated from the mean fluorescence intensity as follows: FI=(MFIpeptide/MFIno peptide)−1 The complex's half-life can be calculated using SigmaPlot regression analysis and the following formula: y=yo+a*e^bx t1/2=1/b*ln((y−yo)/a) with yo=Fimax/2 Conjugation of Monomers to Generate Tetramers
HLA-A2-restricted epitopes derived from HoxA9 and Meis I were predicted using two computational algorithms, and 6 epitopes from each gene product with the highest predicted likelihood of binding to HLA-A2 were evaluated empirically using a flow-based T2 assay, as described (Vonderheide et al., 1999, Immunity 10:673-679). […]

[1] = system: T2 cells loaded with cognate peptide; experiment: lysis of peptide-loaded T2 cells by peptide-specific CTL; type: cell-based, human; conditions: not negative control viral peptide
Method: The following assay is adapted from Fischer et al. (2002, J. Immunol. Methods 259:159-169). Briefly, T2 cells are labeled as follows. T2 cells are plated at 1×10^6/mL in serum-free RPMI-1640×1 mL in 24 well plate. 2.5 ug/mL B2M is added to the cells. 1 ug/mL peptide (Tax or Flu) is added to the mixture. The cells are incubate overnight at 37° C. in a CO2 incubator. The cells are then washed once in RPMI-1640 (serum free). The supernatant is removed; leaving about 25 ul supernatant on the pellet. The remaining cells in suspension are agitated to mix with the supernatant. 1 mL of diluent C is added to resuspend the cells.
Immediately prior to staining, 4×10)(−6)M PKH26 dye is prepared at RT (1:250 dilution of stock; 4 ul of 996 ul diluent C). 1 mL of PKH26 dye is immediately added to 1 mL of cells. The sample is immediatedly mixed by gentle pipetting. The sample is incubate at RT for about 2-5 minutes, with periodical swirling of the tube to insure mixing. The staining reaction is stopped by adding 2 mL of serum in a compatible protein solution. This solution is incubated for 1 minute to stop the staining reaction. The sample is then diluted with 4 mL of complete media (T cell media). The cells are washed two to three times with T cell media.
To assay for the T2 cells, targets at 2e5/mL in IMDM 10% huSerum is prepared. Effectors are prepared at 2×10^6/mL and 2×10^5/mL in IMDM 10% huSerum. […]

[2] = system: HoxA9+ and Meis1+ leukemia cell lines; experiment: lysis of leukemia cell lines by peptide-specific CTL; type: cell-based, human; conditions: antigen-dependent, MHC-restricted; HLA-A2-negative or antigen-negative leukemia cells not killed
Text: To determine whether these peptides could trigger the expansion of specific CTL, CD8+ T cells from normal HLA-A2+ donors were stimulated in vitro with autologous peptide-loaded antigen presenting cells, using a system previously described (Vonderheide et al., 1999, Immunity 10:673-679). […] Moreover, both Hox-TLD and Mei-AIY specific CTL were able to lyse HoxA9+ and Meis1+leukemia cell lines in an antigen-dependent, MHC-restricted fashion.

human HLA-A*0201 = target: T2, human HLA-A*0201 (human); experiment: flow-based T2 assay (HLA-A2 stabilisation on peptide-pulsed T2 cells, anti-HLA-A2-FITC)
T2 construct: HLA-A2 on TAP-deficient T2 cells; Surface stabilisation by peptide was read with anti-HLA-A2-FITC by flow cytometry; also called HLA-A2; A2
Method: Next day, cells are harvested and washed three times in serum-free RPMI. The supernatant is removed and the cells are resuspend in 800 ul of serum free IMDM. The cells are plated (400 ul of cells) to one well of a 48 well plate. The cells are incubate for an additional 6 hours in an incubator at 37° C. The remaining cells are saved and place on ice for immediate analysis. The cells are stained for anti-HLA-A2-FITC and for IgG-FITC. The cells are anaylized on a flow cytometer.
HLA-A2-restricted epitopes derived from HoxA9 and Meis I were predicted using two computational algorithms, and 6 epitopes from each gene product with the highest predicted likelihood of binding to HLA-A2 were evaluated empirically using a flow-based T2 assay, as described (Vonderheide et al., 1999, Immunity 10:673-679). […] The same cells in normal HLA-A2+ donors were undetectable.

Molecule | binding and MHC complex stability (HLA-A2) | lysis of T2 cells loaded with cognate peptide by specific CTL [1] | lysis of HoxA9+ and Meis1+ leukemia cell lines by specific CTL [2] | binding result (human HLA-A*0201)
Hox-TLD: epitope of the antigen HOX-A9, SEQ ID NO:3 (TLDTHTLSL; human-derived peptide) | best binding and MHC complex stability | able to lyse T2 cells loaded with cognate peptide | able to lyse | 
Mei-AIY: epitope of the antigen Meis1, SEQ ID NO:11 (AIYGHPLFPL; human-derived peptide) | best binding and MHC complex stability | able to lyse T2 cells loaded with cognate peptide | able to lyse | 
AIYGHPLFPL [Mei-AIY] |  |  |  | binds
TLDTHTLSL [Hox-TLD] |  |  |  | binds
